From paper doi:10.1101/2021.04.18.440036 (bioRxiv, 2021)

Molecular target: protective antigen (PA) prepore (Bacillus anthracis V770-NP1-R (ATCC …, UniProt P13423))
Assay: cryo-EM structure

protective antigen (PA) prepore (Bacillus anthracis V770-NP1-R, sequence (P13423 whole entry, looked up): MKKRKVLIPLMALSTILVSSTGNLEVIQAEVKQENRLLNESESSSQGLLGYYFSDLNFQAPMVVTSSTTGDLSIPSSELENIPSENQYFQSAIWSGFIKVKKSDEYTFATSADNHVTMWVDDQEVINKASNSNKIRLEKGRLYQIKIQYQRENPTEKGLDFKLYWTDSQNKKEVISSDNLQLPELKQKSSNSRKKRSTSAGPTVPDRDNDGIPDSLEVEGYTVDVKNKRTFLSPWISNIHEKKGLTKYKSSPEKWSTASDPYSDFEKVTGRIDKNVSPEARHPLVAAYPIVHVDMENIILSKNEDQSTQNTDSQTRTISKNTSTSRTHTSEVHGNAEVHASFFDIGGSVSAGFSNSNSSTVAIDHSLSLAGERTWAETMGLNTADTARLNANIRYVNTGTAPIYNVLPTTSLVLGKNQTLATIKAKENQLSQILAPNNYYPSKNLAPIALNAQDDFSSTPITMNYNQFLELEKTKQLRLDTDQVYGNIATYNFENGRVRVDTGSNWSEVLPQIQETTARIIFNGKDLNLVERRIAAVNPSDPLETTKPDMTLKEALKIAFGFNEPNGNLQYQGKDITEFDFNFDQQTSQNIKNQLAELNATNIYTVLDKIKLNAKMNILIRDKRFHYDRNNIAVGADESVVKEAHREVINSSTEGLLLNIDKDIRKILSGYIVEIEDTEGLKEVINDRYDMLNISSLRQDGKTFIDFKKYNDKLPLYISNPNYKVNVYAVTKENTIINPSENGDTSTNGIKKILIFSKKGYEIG

B1: cAb29 Fab (Fab, V domains shown)
VH: QVQLQQSGAELVKPGASVKMSCKASGYIFTNYNMHWVQQTPGQGLEWIGAIYPRTGDTSYNQKFKGKATLTADKSSSTAYMQLSSLTSEDSAVYYCARDGFAYWGQG
VL: DIQMTQTTSSLSASLGDRVTISCRASQDISNYLNWYQQKPDGTVKLLIYYTSRLHSEVPSRFSGSGSGTDYSLTISNLEEEDIATYFCQQGKTLPWTFGGG
  binding result: binds
